Laboratory results: publication PMC9886983, “Mechanism of regulation of the Helicobacter pylori Cagβ ATPase by CagZ” (Nature Communications, 2023)

Experiments:
[1] = molecular target: Cagβ-AAD1 (all-alpha domain of Cagβ, residues 289–488) (Helicobacter pylori 26695) (UniProt O25260); assay: ITC; ITC-200 at 25 °C; 20 mM Tris pH 8.0, 150 mM NaCl; Cagβ proteins (20 µM) in the cell, CagZ proteins or peptides (200 µM) in the syringe
[2] = molecular target: Cagβ-AAD1 E350A (Helicobacter pylori 26695); assay: as above
[3] = molecular target: Cagβ1 (soluble region of Cagβ, residues 166–748) (Helicobacter pylori 26695) (UniProt O25260); assay: mass photometry; Cagβ1/CagZ complex (co-expressed, co-purified) at 0.06 µM; OneMP instrument (Refeyn)
[4] = molecular target: Cagβ-AAD1 R375A (Helicobacter pylori 26695); assay: ITC; ITC-200 at 25 °C; 20 mM Tris pH 8.0, 150 mM NaCl; Cagβ proteins (20 µM) in the cell, CagZ proteins or peptides (200 µM) in the syringe
[5] = molecular target: Cagβ-AAD1 E462A (Helicobacter pylori 26695); assay: as above
[6] = molecular target: Cagβ-AAD1 T338A (Helicobacter pylori 26695); assay: as above
[7] = molecular target: Cagβ-AAD1 D335A (Helicobacter pylori 26695); assay: as above
[8] = molecular target: Cagβ-AAD1 S453A (Helicobacter pylori 26695); assay: as above
[9] = molecular target: Cagβ-AAD1 E314A (Helicobacter pylori 26695); assay: as above
[10] = molecular target: Cagβ-AAD1 D309A (Helicobacter pylori 26695); assay: as above
[11] = molecular target: Cagβ-AAD1 E396A (Helicobacter pylori 26695); assay: as above
[12] = molecular target: Cagβ-AAD1 N449A (Helicobacter pylori 26695); assay: as above
[13] = molecular target: Cagβ-AAD1 Y374F (Helicobacter pylori 26695); assay: as above
[14] = molecular target: Cagβ-AAD1 K388A (Helicobacter pylori 26695); assay: as above
[15] = molecular target: Cagβ-AAD1 D356A (Helicobacter pylori 26695); assay: as above
[16] = molecular target: Cagβ-AAD1 N452A (Helicobacter pylori 26695); assay: as above
[17] = molecular target: Cagβ-AAD1 N365A (Helicobacter pylori 26695); assay: as above
[18] = molecular target: Cagβ-AAD1 F358A (Helicobacter pylori 26695); assay: as above
[19] = molecular target: Cagβ-AAD1 N361A (Helicobacter pylori 26695); assay: as above
[20] = molecular target: T1, CagZ (residues 2-199), wild type (Helicobacter pylori 26695, UniProt B5Z6P9 2-199); assay: ITC; ITC-200, 25 °C, 20 mM Tris pH 8.0, 150 mM NaCl; Cagβ proteins (20 µM) in the cell, CagZ proteins (200 µM) in the syringe; conditions: both partners purified
T1 construct: CagZ of Helicobacter pylori 26695, residues 2-199; also called CagZ-WT; source: E. coli BL21 star (DE3), purified (Ni-NTA, TEV, second Ni-NTA, SEC); not shown: His6, N-terminal, cleaved; TrxA, N-terminal, cleaved
T1 sequence: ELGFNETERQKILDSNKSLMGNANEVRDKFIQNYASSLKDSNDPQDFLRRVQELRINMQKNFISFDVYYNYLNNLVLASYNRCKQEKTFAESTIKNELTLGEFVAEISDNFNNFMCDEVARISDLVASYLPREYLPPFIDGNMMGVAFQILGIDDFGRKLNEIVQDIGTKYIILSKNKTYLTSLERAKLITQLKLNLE

[21] = molecular target: T2, Cagβ-AAD1 (all-alpha domain of Cagβ, residues 289–488) (Helicobacter pylori 26695, UniProt O25260 289-488); assay: ITC; ITC-200 at 25 °C; 20 mM Tris pH 8.0, 150 mM NaCl; Cagβ proteins (20 µM) in the cell, CagZ proteins or peptides (200 µM) in the syringe; conditions: both partners purified
T2 construct: Cagβ (HP0524, Cag5) of H. pylori 26695, residues 289-488, holding the all-alpha domain (AAD); source: E. coli BL21 star (DE3), purified (Ni-NTA, TEV cleavage, second Ni-NTA, SEC); not shown: His6, N-terminal, cleaved; TrxA, N-terminal, cleaved
T2 sequence: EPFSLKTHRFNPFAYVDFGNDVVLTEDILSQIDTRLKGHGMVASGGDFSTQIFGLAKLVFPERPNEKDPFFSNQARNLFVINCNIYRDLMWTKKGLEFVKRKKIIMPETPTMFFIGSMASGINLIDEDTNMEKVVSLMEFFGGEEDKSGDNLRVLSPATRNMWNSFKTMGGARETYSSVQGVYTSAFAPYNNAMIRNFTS

[22] = molecular target: T3, Cagβ-AAD1 (residues 289-488), wild type (Helicobacter pylori 26695, UniProt O25260 289-488); assay: ITC; ITC-200, 25 °C, 20 mM Tris pH 8.0, 150 mM NaCl; Cagβ proteins (20 µM) in the cell, CagZ proteins (200 µM) in the syringe; conditions: both partners purified
T3 construct: Cagβ (HP0524, Cag5) of Helicobacter pylori 26695, residues 289-488, holds the all-alpha domain (AAD); also called Cagβ-AAD1_WT; Cagβ-AAD1 (289-488); source: E. coli BL21 star (DE3), purified (Ni-NTA, TEV, second Ni-NTA, SEC); not shown: His6, N-terminal, cleaved; TrxA, N-terminal, cleaved
T3 sequence: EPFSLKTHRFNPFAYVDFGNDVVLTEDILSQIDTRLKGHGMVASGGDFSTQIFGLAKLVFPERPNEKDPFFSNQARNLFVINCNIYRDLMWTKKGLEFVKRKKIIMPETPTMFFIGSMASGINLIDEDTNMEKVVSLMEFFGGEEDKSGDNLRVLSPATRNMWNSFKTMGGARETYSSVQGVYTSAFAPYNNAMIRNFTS

With CagZ S184A (natural protein) as the molecule, how does the Kd [1] read?
The Kd was 70 nM.

CagZ R187A (natural protein) was tested. Which Kd [1] did it give?
Its Kd is 16900 nM.

For CagZ R159A (natural protein), which Kd [2] is on record?
Its Kd is 40 nM.

“CagZ co-expressed with Cagβ1 from pET-28a (natural protein)” was tested. Which percent of the protein in the 1:1 complex [3] did it give?
Its percent of the protein in the 1:1 complex is 88%.

What about the stoichiometry N [3] of the same molecule?
The stoichiometry N was 1.

Which Kd [1] does the source give for CagZ N178A/Y181A (natural protein) here?
Its Kd is 1500 nM.

Which results are given for CagZ Y181A (natural protein)?
Kd [1]: 560 nM; Kd [4]: 35700 nM

CagZ R133A (natural protein) was tested. Which Kd [5] did it give?
The Kd was 20 nM.

How did the Kd [6] turn out when CagZ T170A (natural protein) was run?
The Kd was 90 nM.

And the Kd [7]?
The Kd was 90 nM.

With CagZ E199A (natural protein) as the molecule, how does the Kd [1] read?
Its Kd is 40 nM.

With CagZ S124A (natural protein) as the molecule, how does the Kd [8] read?
Its Kd is 20 nM.

CagZ K85A (natural protein) was tested. Which Kd [9] did it give?
The Kd was 80 nM.

“CagZ (residues 2–199), expressed separately from pET-32a (from UniProt O25261 2-199) (natural protein)” was tested. Which Kd [10] did it give?
The Kd was 70 nM.

What about the Kd [11] of the same molecule?
Its Kd is 40 nM.

What about the Kd [12] of the same molecule?
Its Kd is 20 nM.

What about the Kd [13] of the same molecule?
Its Kd is 20 nM.

And the Kd [4]?
Its Kd is 1460 nM.

And the Kd [14]?
Its Kd is 40 nM.

With CagZ Q150A (natural protein) as the molecule, how does the Kd [15] read?
The Kd was 50 nM.

For CagZ D125A (natural protein), which Kd [16] is on record?
Its Kd is 60 nM.

Which Kd [17] does the source give for CagZ N162A (natural protein) here?
The Kd was 40 nM.

For CagZ N178A (natural protein), which Kd [1] is on record?
Its Kd is 150 nM.

And the Kd [4]?
Its Kd is 8770 nM.

With CagZ F149A (natural protein) as the molecule, how does the Kd [18] read?
The Kd was 410 nM.

For CagZ Y81F (natural protein), which Kd [9] is on record?
The Kd was 90 nM.

How did the Kd [19] turn out when CagZ D155A (natural protein) was run?
Its Kd is 60 nM.

B1: Cagβ-AAD3 (residues 299-488) (domain or fragment)
chain: NPFAYVDFGNDVVLTEDILSQIDTRLKGHGMVASGGDFSTQIFGLAKLVFPERPNEKDPFFSNQARNLFVINCNIYRDLMWTKKGLEFVKRKKIIMPETPTMFFIGSMASGINLIDEDTNMEKVVSLMEFFGGEEDKSGDNLRVLSPATRNMWNSFKTMGGARETYSSVQGVYTSAFAPYNNAMIRNFTS
notes: Cagβ (HP0524, Cag5) of Helicobacter pylori 26695, residues 299-488, holds the all-alpha domain (AAD); also called Cagβ-AAD3 (299-488); source: E. coli BL21 star (DE3), purified (Ni-NTA, TEV, second Ni-NTA, SEC); not shown: His6, N-terminal, cleaved; TrxA, N-terminal, cleaved
For B1, which Kd [20] is on record?
Its Kd is 190 nM.

B2: CagZ-20 (peptide of the CagZ C-terminal tail, residues 176–195) (peptide)
peptide: SKNKTYLTSLERAKLITQLK
notes: CagZ of H. pylori, C-terminal tail, residues 176-195; source: synthetic peptide (Genscript)
B2 was tested. Which Kd [21] did it give?
Its Kd is 42000 nM.

B3: CagZ-24 (peptide of the CagZ C-terminal tail, residues 176–199) (peptide)
peptide: SKNKTYLTSLERAKLITQLKLNLE
notes: CagZ of H. pylori, C-terminal tail, residues 176-199; source: synthetic peptide (Genscript)
Which Kd [21] does the source give for B3 here?
The Kd was 330 nM.

B4: CagZ (residues 2-199) E199A (natural protein)
chain: ELGFNETERQKILDSNKSLMGNANEVRDKFIQNYASSLKDSNDPQDFLRRVQELRINMQKNFISFDVYYNYLNNLVLASYNRCKQEKTFAESTIKNELTLGEFVAEISDNFNNFMCDEVARISDLVASYLPREYLPPFIDGNMMGVAFQILGIDDFGRKLNEIVQDIGTKYIILSKNKTYLTSLERAKLITQLKLNLA
notes: CagZ of Helicobacter pylori 26695, residues 2-199, with E199A; source: E. coli BL21 star (DE3), purified as the wild type but without TEV protease treatment; not shown: His6, N-terminal, kept; TrxA, N-terminal, kept
B4 was tested. Which Kd [22] did it give?
Its Kd is roughly 50 nM.

B5: CagZ (residues 2–199), expressed separately from pET-32a (natural protein)
chain: ELGFNEAERQKILDSNSSLMGNANEVRDKFIQNYASSLKDSNDPQDFLRRVQELRINMQKNFISFDVYYNYLNNLVLASYNRCKQEKTFAESTIKNELTLGEFVAEISDNFNNFMCDEVARISDLVASYLPREYLPPFIDGNMMGVAFQILGIDDFGRKLNEIVQDIGTKYIILSKNKTYLTSLERAKLITQLKLNLE
notes: CagZ of H. pylori 26695, residues 2-199; also called WT; full-length CagZ; source: E. coli BL21 star (DE3), purified (Ni-NTA, TEV cleavage, second Ni-NTA, SEC); not shown: His6, N-terminal, cleaved; TrxA, N-terminal, cleaved
Which Kd [21] does the source give for B5 here?
Its Kd is 90 nM.
